The source of these data is IntAct's records for PubMed 17442384.

The labels stand for the following.
B1: Suppressor protein STP22 of temperature-sensitive alpha-factor receptor and arginine permease (Saccharomyces cerevisiae), P25604 (parent)
chain: MSANGKISVPEAVVNWLFKVIQPIYNDGRTTFHDSLALLDNFHSLRPRTRVFTHSDGTPQLLLSIYGTISTGEDGSSPHSIPVIMWVPSMYPVKPPFISINLENFDMNTISSSLPIQEYIDSNGWIALPILHCWDPAAMNLIMVVQELMSLLHEPPQDQAPSLPPKPNTQLQQEQNTPPLPPKPKSPHLKPPLPPPPPPQPASNALDLMDMDNTDISPTNHHEMLQNLQTVVNELYREDVDYVADKILTRQTVMQESIARFHEIIAIDKNHLRAVEQAIEQTMHSLNAQIDVLTANRAKVQQFSSTSHVDDEDVNSIAVAKTDGLNQLYNLVAQDYALTDTIECLSRMLHRGTIPLDTFVKQGRELARQQFLVRWHIQRITSPLS
partner: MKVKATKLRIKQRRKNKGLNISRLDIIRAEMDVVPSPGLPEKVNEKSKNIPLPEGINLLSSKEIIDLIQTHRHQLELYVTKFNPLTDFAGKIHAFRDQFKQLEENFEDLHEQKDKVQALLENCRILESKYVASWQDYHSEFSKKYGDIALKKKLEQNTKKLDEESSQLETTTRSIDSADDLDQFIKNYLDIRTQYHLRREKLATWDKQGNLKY
B2: Suppressor protein STP22 of temperature-sensitive alpha-factor receptor and arginine permease (Saccharomyces cerevisiae), P25604 (parent)
chain: B1 chain
partner: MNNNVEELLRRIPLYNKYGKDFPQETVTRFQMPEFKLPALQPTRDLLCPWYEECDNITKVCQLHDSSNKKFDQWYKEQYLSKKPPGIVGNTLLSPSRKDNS
B3: Multivesicular body sorting factor 12 (Saccharomyces cerevisiae), P42939 (parent)
chain: B2 partner
partner: B1 chain
B4: Multivesicular body sorting factor 12 (Saccharomyces cerevisiae), P42939 (parent)
chain: B2 partner
partner: B1 partner

Variants of B1 are the subject of one assay. Conditions: with srn2_yeast SRN2, Q99176.
In the case of MSANGKISVPEAVVNWLFKVIQPIYNDGRTTFHDSLALLDNFHSLRPRTRVFTHSDGTPQLLLSIYGTISTGEDGSSPHSIPVIMWVPSMYPVKPPFISINLENFDMNTISSSLPIQEYIDSNGWIALPILHCWDPAAMNLIMVVQELMSLLHEPPQDQAPSLPPKPNTQLQQEQNTPPLPPKPKSPHLKPPLPPPPPPQPASNALDLMDMDNTDISPTNHHEMLQNLQTVVNELYREDVDYVADKILTRQTVDQESIARFHEIIAIDKNHLRAVEQAIEQTMHSLNAQIDVLTANRAKVQQFSSTSHVDDEDVNSIAVAKTDGLNQLYNLVAQDYALTDTIECLSRMLHRGTIPLDTFVKQGRELARQQFLVRWHIQRITSPLS [M254D], the “effect of a mutation on the interaction” value is “decreasing interaction”.

In a further assay the parent is B2. The following applies: with mvb12_yeast MVB12, P42939.
As to MSANGKISVPEAVVNWLFKVIQPIYNDGRTTFHDSLALLDNFHSLRPRTRVFTHSDGTPQLLLSIYGTISTGEDGSSPHSIPVIMWVPSMYPVKPPFISINLENFDMNTISSSLPIQEYIDSNGWIALPILHCWDPAAMNLIMVVQELMSLLHEPPQDQAPSLPPKPNTQLQQEQNTPPLPPKPKSPHLKPPLPPPPPPQPASNALDLMDMDNTDISPTNHHEMLQNLQTVVNELYREDVDYVADKILTRQTVDQESIARFHEIIAIDKNHLRAVEQAIEQTMHSLNAQIDVLTANRAKVQQFSSTSHVDDEDVNSIAVAKTDGLNQLYNLVAQDYALTDTIECLSRMLHRGTIPLDTFVKQGRELARQQFLVRWHIQRITSPLS [M254D], the “effect of a mutation on the interaction” value is listed as “decreasing interaction”.

The variants in a further assay derive from B3. The following applies: with stp22_yeast STP22, P25604.
Turning to MNNNVEELLRRIPLYNKYGKDFPQETVTRFQMPEFKLPALQPTRDLDCPWYEECDNDTKVCQLHDSSNKKFDQWYKEQYLSKKPPGIVGNTLLSPSRKDNS, the “effect of a mutation on the interaction” value is reported as “decreasing interaction”.

Variants of B4 are the subject of the next assay. Conditions: with srn2_yeast SRN2, Q99176.
On to MNNNVEELLRRIPLYNKYGKDFPQETVTRFQMPEFKLPALQPTRDLDCPWYEECDNDTKVCQLHDSSNKKFDQWYKEQYLSKKPPGIVGNTLLSPSRKDNS, for which the “effect of a mutation on the interaction” value is “decreasing interaction”.
